Data published in the DeepSol protein solubility set.

Test: soluble on expression in E. coli; label from the status in PepcDB or PDB records

Row | Sequence | soluble on expression in E. coli
1 | SETWSVEQVCSWLVEKNLGELVHRFQEEEVSGAALLALNDRMVQQLVKKIGHQAVLMDLIKKYKQNTQGLKSPENPKKAALVMQTEAARDYRDKESSSPARHGEQMPSFYPAENLDNGLIDQRVLKQRRNVKQILARSKALQWTKSYVLPEFPYDVKCMLAEQKCPDHSMRIRIIEFLQADMTKYLEGSLYPSTQQYNDVVNALLQAHPFLDEDGCGFAGV | soluble
2 | MINLTSIASSLARVALSDSTKPTIDRALNVVSHIAGKVALQVNSSLLEQKGRLNERQQKGLAVILDALRGKEPVTNVETHEGGGRFNLARAAFDVASVVWERDKSMHNVMSFLGVSDSQGKMLFSLGKKLADAMAKPEPGYGKHNSEANYAFFSSNLKLNKLMSDIADQLINEIRQSNTDRVRRPTPGPSWRPESAQQQARPQTPPRTRPQANSTPPPPKAKPNAGAKRPSTQRPHNTPAADASSKVGDSGPAKPPVKPLYEHLGLSDMTADLSAVKTAYKKAALKNHPDKNAGNVAEATERFKVISNAFKILSDPELRKKYDNGLINEKGDEVQV | not soluble
3 | MLVLRLFNTQKARLSQLPKASNEIVKDFISKLANAAGSRDKLSDCFTHDFQFFGCGYTVNKAPFVEKHLATPNPEPLIPKCSSFNGNDSKISFTASHQDGPRENIVDLVISREEKDSPWRLQSGKITNCP | not soluble
4 | SNEGKELSTFCRKFEVPLRKALEKAGRLVDDPGRPRLLLTFISGRRVFVGVASASNSALWPMGIPRLKFPREAPSRSTLKLEEAWHQFIPREQWEQRLGDDMTGVDLGASPGGWTYQLVRRGMLVTAIDNGPMAESLMDTGLVQHLMADGFTWQPKQPVDWMVCDIVEKPARTTSLIETWLGEGLCREAVVNLKLPMKQRYAEVRRLLDRMEATFKARKIRVSIACKQLYHDREEVTCHLRRLDLK | not soluble
5 | MSLHPASANLSPSSVKNCSAKTFGFLILPNFTTIGLASAVETLRMANLAARKPLYRSVLIAADDAPVVASNGMRVLPDYNITNAPALDALLVVGANPIDRSRSNRPLIDWLRQLARQRLPLGGICTGSYLLAKAELLKGYRCTIHWEDLPTLQAHFPGIVISSQLFELDRDRYTCSGGVAAMDMMLQLVARDTGGQDIAAKAAELLLCDRVRGEREGHHHHHH | soluble
6 | MDGTIKEALSVVSDDQSLFDSAYGAAAHLPKADMTASGSPDYGQPHKINPLPPQQEWINQPVRVNVKREYDHMNGSRESPVDCSVSKCSKLVGGGESNPMNYNSYMDEKNGPPPPNMTTNERRVIVPADPTLWTQEHVRQWLEWAIKEYSLMEIDTSFFQNMDGKELCKMNKEDFLRATTLYNTEVLLSHLSYLRESSLLAYNTTSHTDQSSRLSVKEDPSYDSVRRGAWGNNMNSGLNKSPPLGGAQTISKNTEQRPQPDPYQILGPTSSRLANPGSGQIQLWQFLLELLSDSANASCITWEGTNGEFKMTDPDEVARRWGERKSKPNMNYDKLSRALRYYYDKNIMTKVHGKRYAYKFDFHGIAQALQPHPTESSMYKYPSDISYMPSYHAHQQKVNFVPPHPSSMPVTSSSFFGAASQYWTSPTGGIYPNPNVPRHPNTHVPSHLGSYY | soluble
7 | MSLKHVIVETEETGYQTRSRVVSVEARTIRVPLERSTAFSTRLVTARDYTVVRVTTADGHYGIGFCYSGNRAGMLVTYAVRELFAPLLLGRSALDVEGSWCAMYDESLLQGRAGSVMRALSILDIALWDRNARATGLPLSRYLGGTCSATVPAYASGGYYLEGKTPEHLGEEMAGYVALGFRAVKMKVGRLDPRSEEARIRAAREAIGDDVLLMLDANNAWSDVPTALEYMRRYEPFNPYWIEEPFSPDDIESHAQLSRRTPVTVATGEIEAGRWRHQELLDKRAALILQSDAAVCGGISEWRRIAASAAAVGVTMCPHWFHDLHVHLVASTTNARYVEFFPDDQVLNFRRLVDTQLSFADGKLTVPTRPGLGFDFDEAALNEYALDDWAEGHHHHHH | not soluble
8 | MAFLARKTSSLLPATTSSTVKHMIYDEPHFAMQNSLAKLIKEKINPNVAQWEKSGRYPAHFVFKMLGQLGVFAVNKPVDYGGTGRDFAMSIAIAEQIGAVDCGSIPMSVMVQSDMSTPALAQFGSDSLRNRFLRPSINGDLVSSIAVSEPHAGSDVSAIRTHARRYGSDLIINGSKMWITNGDQADWACVLVNTSNAKNLHKNKSLVCIPLDSIGVHRSTPLDKLGMRSSDTVQLFFEDVRVPSSYIIGEEGRGFAYQMNQFNDERLVTVAVGLLPLQKCINETIEYARERLIFGKTLLDQQYVQFRLAELEAELEATRSLLYRTVLARCQGEDVSMLTAMAKLKIGRLARKVTDQCLQIWGGAGYLNDNGISRAFRDFRIFSIGAGCDEVMMQIIHKTQSKRQQKRI | not soluble
9 | MGSDKIHHHHHHMNNFFTRVDNLSRLSVEKHNVAFSLFDWPAHIAEDTWWQSPDVLSIALTDHIEQWDEAQLIKLAKWECINSFSLNYTGELELIQEVSRILDKVALSDAREYLYHLIDEENQHMWYFQKFCRAYGGKVYPNKKFQIEKQLMSPAKEHFLVFARILIFEEIGHYYNIQNARDSRVHPFVREINEAHYKDESRHIAYGRQVLEHLAKDAITDEGDALWLGQQLDKSIAINIAALYNPQAYRDAGITKGMALRESLLNHPNRIELHETKLLGSFKRHAERLGITLTDTRK | not soluble
10 | NPQTSVSNTGKEADATKNQTSKADQVSAPYEGTGKTSKSLYGGQTELEKNIQTLQPSSIIGTDERTRISSTTSFPYRATVQLSIKYPNTSSTYGCTGFLVNPNTVVTAGHCVYSQDHGWASTITAAPGRNGSSYPYGTYSGTMFYSVKGWTESKDTNYDYGAIKLNGSPGNTVGWYGYRTTNSSSPVGLSSSVTGFPCDKTFGTMWSDTKPIRSAETYKLTYTTDTYGCQSGSPVYRNYSDTGQTAIAIHTNGGSSYNLGTRVTNDVFNNIQYWANQ | not soluble
11 | MPLDPICKKIISRDTEYFSDYGGKNYYFCSSECKHKFDALEKSVIRLKRNLSEKEKISFGKLKRDIIKPGICTLCGACAASCEYITIKDEKPELIGPCKACGVCYYQCPRTITTEEGLIGSFRYAYAAQSAIPEIKGQDGGVVTSLLLYALDEGLIDCAVVTVHSEEEPWKPVPIVAKTREEILKSSGSIYSHSMTLEALMSAVKQGMNSVAFVGTSCNIDAVTKMQKSSYGFLHLFMRAKVLKLGLFCMDTFAYEGIKAVLESYGITLDNVDAMKIRKGKFEVALKDGKEHIFELSEFDEYRSSSCRFCTDLTAENSDISFGGVGSPRGYTTVLARSAIGYEIFNEAIDNGYIEARQLTDDELEKVLNLAKMKKVQMYDLHRRQKTLEHHHHHH | not soluble
12 | MSLKRIAIILLTLTSILFVQHVPEGLAKASNELSLEEKYEQRLTLYEKMEAITNVPWYYLAAVDTYERGLRRAQKDRPAEEGLIAIYFSPQQWVGPLNPDLEDTNPLSISMFNGVGLDGNGDGVADRNNDEDVLYTFARYLESYGFKEEDFRIALWEYYQREQSVNIIYGHANVYKTFKTLDLDDHTFPLPLHHNYSYRSTWGDRRGWGGRRIHEGTDIFANYNVPVMATAYGIVEIKGWNKYGGWRIGVRDLDNVYHYYAHLSGFEKGVEKGTVVAPGDVIGYVGSSGYGKPGTQGKFPPHLHYGMYRDNGYTEWSFDPYPSLKSWERKAYQERKKKKEGHHHHHH | soluble
13 | GQGVSRSGALDLGALRSANRTVGNPSDMACVESVLGGLSFSCHGSAVIAITGAHTPVTITSASGLQWQASNYQPIELETGDRVSLGSPKAGLRSYLAIRGGFDVTPVLGSLSTDTLAQLGPEALATGDRLGFTAPVNGTSVSLNEAPAFELPTTANIVTLDVVMGPRTDWFTENAIQRLSSQLWRVTPQSNRVGIRLAGDTPLERSNHQELPSEGTSVGAIQVPASGQPVLFLADHPLTGGYPVIASVASHHLDLAGQIPVNAQIRFNPLGAFEEMQPSTEASFSTADAKNNS | not soluble
14 | MVLFEKPGKENTRKTLEIAIQKASELSSKKLLIASATGYSARMALEMIPEDMKLVVVTHHAGFEEPDTQEFDEELRKLLKEKGHDVLTATHALSAGERSLRRKFGGIYPLEIIANTLRMFSEGVKVGVEITLMAADAGLVKTSELVVACGGTESGLDSAIVVKPANSPNLFDLKITEILCKPLIS | soluble
15 | MGSDKIHHHHHHMTISRNYDQEIKDTAGHKYAYNFDFDVMHPFMVRAFTPFFRPGNLLELGSFKGDFTSRLQEHFNDITCVEASEEAISHAQGRLKDGITYIHSRFEDAQLPRRYDNIVLTHVLEHIDDPVALLKRINDDWLAEGGRLFLVCPNANAVSRQIAVKMGIISHNSAVTEAEFAHGHRCTYALDTLERDASRAGLQVTYRSGIFFKALANFQWDQILQTDILSKEYLDGCYQLGQQYPDLCASIFLLCEKGINQ | not soluble
16 | MTPEALSFWTQADKPFLFLAACIELTNALAYGPGYVCGLPCSWDGSCSGAQHLCAATRSEDAWKVNLIGNDEVHDLYTIVGNAAKQSMARDTDPMVSTILAYEGDWRKVFKRNTMTTFYGSKGFGMAQQHMDDLMEPLSREVMQKKRAKHPFGQTRKEHHAASRLLAAHAAAAIKGEIPLAIKAMEFIQKLSAMMAHEGKPLEWTTPIGLPWSNRYHDPVTERVNLWMHDHGVRRPFRPVVADGYKKTINKNHSVNGSAPNFVHACDAAHLLRTVNAARAEGITQFALVHDSFGSLPSHAARFRQIIREEFVRMYEEHDVLTEVLEQAKCDLDEHNDKLSALVDMRADLTGKLNIKEVLNAEYAFAYPKLSEPDTKGEYADGKYKTEGTATEDYTERFQEEIQKVADDNFPGKKNVHLPWKETKEGDIAFIFKNPKKKPILTDSRGKPLKEGTVIRGGSKIRIAGVIAAWEKGAKRGVSLWPDAVRVIKLSEGFDANAAFGAAEDGFNADDYEPTNFGNDGEDADNDADDAEAGDDAFKLLEHHHHHH | not soluble
17 | MGDRGYGGSRSYGGSSGGGSRGGYGGGGRGGGGGGYSGGRGGGYGGGGGGGYGGGGYGGGGRGGGRGGSNGSAGGRLRDVDWSAENLTPIEKDFYHENAAVSRREQYEIDQWVSANQVTLEGRGVPRPVFEFNEAPLPGQIHELLYGKFQKPTVIQSISWPIAMSGRDIISIAKTGSGKTLAFMLPALVHITKQAHRQRGEGPAVLVLLPTRELAQQVQEVSIDFCHSLGLKMTCLFGGASKGPQARDLERGVDIVVATPGRLLDFLDNGTTNMKKCSYLVLDEADRMLDMGFEPQIKKIIGQIRPDRQTLMFSATWPKEVRALASDFQKDAAFLNVGSLELAANHNITQVVDILEEHAKQAKLMELLNHIMNQKECKTIIFVETKRKADELTRAMRRDGWPTLCIHGDKNQGERDWVLQEFKAGKTPIMLATDVAARGLDVDDIKFVINYDYPNNSEDYVHRIGRTGRSDKKGTAYTFFTHTNASKAKDLLKVLDEAKQTVPQALRDMANRSYGGSNSRGRYGGGGFQKRGYGGNDNFAPKRPRYDNGGYGGGSGGGGRW | not soluble
18 | MRGLAVLVLLVFAVQVAAAEDFRPVVFVHGLAGSAGQFESQGMRFAANGYPAEYVKTFEYDTISWALVVETDMLFSGLGSEFGLNISQIIDPETLDKILSKSRERLIDETFSRLDRVIDEALAESGADKVDLVGHSMGTFFLVRYVNSSPERAAKVAHLILLDGVWGVDAPEGIPTLAVFGNPKALPALGLPEEKVVYNATNVYFNNMTHVQLCTSPETFAVMFEFINGYKPATTDIVPQDGDYVKVKGKFLAFATNGDVSGWLSIYPIDENGKRLTRLPVKFMRVKGDFEVRLRKGQLYEFQFRKDFSPIIYHYYRAPFVRDDLWARFLVSKPPLDVELLILPERLSPAAKETSGLLLIRYKEMIGEYDEEIGGVDEVYVNGVNVCTERICPIERAVNGLWVFDRGADGKSDLDREVVRYSIMPFMSAADLVVPAEGTISIAVKSRTGGEESFTIPAWSADRHSIIVQFSDYIVDKLAAALEH | soluble
19 | MDRMDKAAKINIINANVRNAQTGDYYYNPYKIVNKTFTDTDGKQVTLKIGITGVLPTQILVWDKANLEGKVTVDDPMEAVKTIVPQMKAAGADFILVAAHSGIGDNEYTKNEENEGYQIAGIEGVDAVATGHSHADFPNGDGTSFYAKYPGVDDVNGLINGKPVVMAGKFGDHLGIMDVKLTYTDGKWKVVNSKAKLEKIDTKSDIADKALIDMAAHDHDGTILTMFVRKLVRPL | not soluble
